Numbered stars: 1 amine (or outer) side, 2 acyl side, 3 side chain; on linkers, the order of the positions; unused ones are H or OH. * marks the point of attachment. C20 diacid = O=C(O)CCCCCCCCCCCCCCCCCCC(=O)*; C18 diacid = O=C(O)CCCCCCCCCCCCCCCCC(=O)*; γGlu = O=C(O)[C@H](CCC(=O)[*:2])N[*:1]
T1: human calcitonin receptor on BHK570/CRE-luc cells (human, UniProt P30988 25-474)
T1 sequence (looked up): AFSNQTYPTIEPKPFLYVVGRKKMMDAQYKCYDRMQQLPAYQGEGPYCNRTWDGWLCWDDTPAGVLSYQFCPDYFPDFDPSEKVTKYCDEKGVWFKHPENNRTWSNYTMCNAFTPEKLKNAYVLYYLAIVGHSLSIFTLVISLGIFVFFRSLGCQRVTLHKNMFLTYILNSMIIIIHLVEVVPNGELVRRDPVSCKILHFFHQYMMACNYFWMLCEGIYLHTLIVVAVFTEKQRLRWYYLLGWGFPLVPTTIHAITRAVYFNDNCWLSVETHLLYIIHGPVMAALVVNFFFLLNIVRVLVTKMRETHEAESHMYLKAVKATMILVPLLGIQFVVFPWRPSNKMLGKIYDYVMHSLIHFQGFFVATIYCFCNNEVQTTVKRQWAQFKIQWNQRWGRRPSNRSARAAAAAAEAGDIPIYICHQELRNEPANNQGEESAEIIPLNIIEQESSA

T2: human amylin 3(a) receptor (human calcitonin receptor co-expressed with RAMP-3) on BHK570/CRE-luc cells (human, UniProt P30988 25-474; O60896 24-148)
T2 sequence (looked up) 1: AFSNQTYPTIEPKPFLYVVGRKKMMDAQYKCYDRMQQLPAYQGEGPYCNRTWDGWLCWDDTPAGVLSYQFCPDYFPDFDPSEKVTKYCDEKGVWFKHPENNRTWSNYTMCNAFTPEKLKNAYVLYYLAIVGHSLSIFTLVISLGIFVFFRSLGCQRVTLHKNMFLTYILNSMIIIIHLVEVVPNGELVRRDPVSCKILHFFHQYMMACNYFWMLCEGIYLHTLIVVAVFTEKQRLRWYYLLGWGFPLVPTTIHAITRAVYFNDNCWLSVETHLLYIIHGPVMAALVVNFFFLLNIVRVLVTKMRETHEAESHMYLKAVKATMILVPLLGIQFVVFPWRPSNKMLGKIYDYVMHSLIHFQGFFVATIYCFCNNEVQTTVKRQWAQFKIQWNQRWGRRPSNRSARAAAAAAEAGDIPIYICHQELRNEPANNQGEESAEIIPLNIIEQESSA
T2 sequence (looked up) 2: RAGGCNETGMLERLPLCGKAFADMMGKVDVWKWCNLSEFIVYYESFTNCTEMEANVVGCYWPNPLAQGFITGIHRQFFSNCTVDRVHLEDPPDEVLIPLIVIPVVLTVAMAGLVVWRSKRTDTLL


Assays:
[1] = target: T1, human calcitonin receptor on …; assay: cell-based or functional assay
[2] = target: T2, human amylin 3(a) receptor (human …); assay: cell-based or functional assay

Row | Binder | hCTR funct. EC50 (pM), tested with HSA [1] [pM] | hAmylin-R funct. EC50 (pM), tested with HSA [2] [pM]
1 | {C18 diacid-γGlu}-ASEVSTAVLGRLSAELHELATLPRTETGSGSP-NH2 [[N-terminal(C18 diacid-gGlu), des1, 5V, 9V, 30S, 31G]mimylin] | 87 | 356
2 | {C20 diacid-γGlu}-ASELSTAALGRLSAELHELATYPRTETGSGSPK-OH (SMILES CC(C)C[C@H](NC(=O)[C@H](C)NC(=O)[C@H](C)NC(=O)[C@@H](NC(=O)[C@H](CO)NC(=O)[C@H](CC(C)C)NC(=O)[C@H](CCC(=O)O)NC(=O)[C@H](CO)NC(=O)[C@H](C)NC(=O)CC[C@H](NC(=O)CCCCCCCCCCCCCCCCCCC(=O)O)C(=O)O)[C@@H](C)O)C(=O)NCC(=O)N[C@@H](CCCNC(=N)N)C(=O)N[C@@H](CC(C)C)C(=O)N[C@@H](CO)C(=O)N[C@@H](C)C(=O)N[C@@H](CCC(=O)O)C(=O)N[C@@H](CC(C)C)C(=O)N[C@@H](Cc1c[nH]cn1)C(=O)N[C@@H](CCC(=O)O)C(=O)N[C@@H](CC(C)C)C(=O)N[C@@H](C)C(=O)N[C@H](C(=O)N[C@@H](Cc1ccc(O)cc1)C(=O)N1CCC[C@H]1C(=O)N[C@@H](CCCNC(=N)N)C(=O)N[C@H](C(=O)N[C@@H](CCC(=O)O)C(=O)N[C@H](C(=O)NCC(=O)N[C@@H](CO)C(=O)NCC(=O)N[C@@H](CO)C(=O)N1CCC[C@H]1C(=O)N[C@@H](CCCCN)C(=O)O)[C@@H](C)O)[C@@H](C)O)[C@@H](C)O) [[N-terminal(C20 diacid-gGlu), des1, 23Y, 30S, 31G, 34K, C-terminal(-)]mimylin] | 53 | 209
3 | {C20 diacid-γGlu}-ASELSTAALGRLSAELHELATYPRTETGSGAP-NH2 (SMILES CC(C)C[C@H](NC(=O)[C@H](C)NC(=O)[C@H](C)NC(=O)[C@@H](NC(=O)[C@H](CO)NC(=O)[C@H](CC(C)C)NC(=O)[C@H](CCC(=O)O)NC(=O)[C@H](CO)NC(=O)[C@H](C)NC(=O)CC[C@H](NC(=O)CCCCCCCCCCCCCCCCCCC(=O)O)C(=O)O)[C@@H](C)O)C(=O)NCC(=O)N[C@@H](CCCNC(=N)N)C(=O)N[C@@H](CC(C)C)C(=O)N[C@@H](CO)C(=O)N[C@@H](C)C(=O)N[C@@H](CCC(=O)O)C(=O)N[C@@H](CC(C)C)C(=O)N[C@@H](Cc1c[nH]cn1)C(=O)N[C@@H](CCC(=O)O)C(=O)N[C@@H](CC(C)C)C(=O)N[C@@H](C)C(=O)N[C@H](C(=O)N[C@@H](Cc1ccc(O)cc1)C(=O)N1CCC[C@H]1C(=O)N[C@@H](CCCNC(=N)N)C(=O)N[C@H](C(=O)N[C@@H](CCC(=O)O)C(=O)N[C@H](C(=O)NCC(=O)N[C@@H](CO)C(=O)NCC(=O)N[C@@H](C)C(=O)N1CCC[C@H]1C(N)=O)[C@@H](C)O)[C@@H](C)O)[C@@H](C)O) [[N-terminal(C20 diacid-gGlu), des1, 23Y, 30S, 31G, 32A]mimylin] | 37 | 100
4 | {C20 diacid-γGlu}-ASELSTAALGRLSAELHELATYPRTETGSGSY-OH [[N-terminal(C20 diacid-gGlu), des1, 23Y, 30S, 31G, 33Y, C-terminal(-)]mimylin] | 418 | 976
5 | {C20 diacid-γGlu}-ASELSTAALGRLSAELHELATYPRTETGSGSPG-OH (SMILES CC(C)C[C@H](NC(=O)[C@H](C)NC(=O)[C@H](C)NC(=O)[C@@H](NC(=O)[C@H](CO)NC(=O)[C@H](CC(C)C)NC(=O)[C@H](CCC(=O)O)NC(=O)[C@H](CO)NC(=O)[C@H](C)NC(=O)CC[C@H](NC(=O)CCCCCCCCCCCCCCCCCCC(=O)O)C(=O)O)[C@@H](C)O)C(=O)NCC(=O)N[C@@H](CCCNC(=N)N)C(=O)N[C@@H](CC(C)C)C(=O)N[C@@H](CO)C(=O)N[C@@H](C)C(=O)N[C@@H](CCC(=O)O)C(=O)N[C@@H](CC(C)C)C(=O)N[C@@H](Cc1c[nH]cn1)C(=O)N[C@@H](CCC(=O)O)C(=O)N[C@@H](CC(C)C)C(=O)N[C@@H](C)C(=O)N[C@H](C(=O)N[C@@H](Cc1ccc(O)cc1)C(=O)N1CCC[C@H]1C(=O)N[C@@H](CCCNC(=N)N)C(=O)N[C@H](C(=O)N[C@@H](CCC(=O)O)C(=O)N[C@H](C(=O)NCC(=O)N[C@@H](CO)C(=O)NCC(=O)N[C@@H](CO)C(=O)N1CCC[C@H]1C(=O)NCC(=O)O)[C@@H](C)O)[C@@H](C)O)[C@@H](C)O) [[N-terminal(C20 diacid-gGlu), des1, 23Y, 30S, 31G, 34G, C-terminal(-)]mimylin] | 50 | 210
6 | {C20 diacid-γGlu}-ASELSTAALGRLSAELHELSTYPRTETGSGSP-NH2 (SMILES CC(C)C[C@H](NC(=O)[C@H](C)NC(=O)[C@H](C)NC(=O)[C@@H](NC(=O)[C@H](CO)NC(=O)[C@H](CC(C)C)NC(=O)[C@H](CCC(=O)O)NC(=O)[C@H](CO)NC(=O)[C@H](C)NC(=O)CC[C@H](NC(=O)CCCCCCCCCCCCCCCCCCC(=O)O)C(=O)O)[C@@H](C)O)C(=O)NCC(=O)N[C@@H](CCCNC(=N)N)C(=O)N[C@@H](CC(C)C)C(=O)N[C@@H](CO)C(=O)N[C@@H](C)C(=O)N[C@@H](CCC(=O)O)C(=O)N[C@@H](CC(C)C)C(=O)N[C@@H](Cc1c[nH]cn1)C(=O)N[C@@H](CCC(=O)O)C(=O)N[C@@H](CC(C)C)C(=O)N[C@@H](CO)C(=O)N[C@H](C(=O)N[C@@H](Cc1ccc(O)cc1)C(=O)N1CCC[C@H]1C(=O)N[C@@H](CCCNC(=N)N)C(=O)N[C@H](C(=O)N[C@@H](CCC(=O)O)C(=O)N[C@H](C(=O)NCC(=O)N[C@@H](CO)C(=O)NCC(=O)N[C@@H](CO)C(=O)N1CCC[C@H]1C(N)=O)[C@@H](C)O)[C@@H](C)O)[C@@H](C)O) [[N-terminal(C20 diacid-gGlu), des1, 21S, 23Y, 30S, 31G]mimylin] | 30 | 58
7 | {C18 diacid-γGlu}-ASELTTAVLGRLSAELHELATLPRTETGSGSP-NH2 (SMILES CC(C)C[C@H](NC(=O)[C@H](CCC(=O)O)NC(=O)[C@H](Cc1c[nH]cn1)NC(=O)[C@H](CC(C)C)NC(=O)[C@H](CCC(=O)O)NC(=O)[C@H](C)NC(=O)[C@H](CO)NC(=O)[C@H](CC(C)C)NC(=O)[C@H](CCCNC(=N)N)NC(=O)CNC(=O)[C@H](CC(C)C)NC(=O)[C@@H](NC(=O)[C@H](C)NC(=O)[C@@H](NC(=O)[C@@H](NC(=O)[C@H](CC(C)C)NC(=O)[C@H](CCC(=O)O)NC(=O)[C@H](CO)NC(=O)[C@H](C)NC(=O)CC[C@H](NC(=O)CCCCCCCCCCCCCCCCC(=O)O)C(=O)O)[C@@H](C)O)[C@@H](C)O)C(C)C)C(=O)N[C@@H](C)C(=O)N[C@H](C(=O)N[C@@H](CC(C)C)C(=O)N1CCC[C@H]1C(=O)N[C@@H](CCCNC(=N)N)C(=O)N[C@H](C(=O)N[C@@H](CCC(=O)O)C(=O)N[C@H](C(=O)NCC(=O)N[C@@H](CO)C(=O)NCC(=O)N[C@@H](CO)C(=O)N1CCC[C@H]1C(N)=O)[C@@H](C)O)[C@@H](C)O)[C@@H](C)O) [[N-terminal(C18 diacid-gGlu), des1, 6T, 9V, 30S, 31G]mimylin] | 9 | 19
8 | {C20 diacid-γGlu}-ASELSTAALGHLSAELHELATLPHTETGSGSP-NH2 (SMILES CC(C)C[C@H](NC(=O)[C@H](C)NC(=O)[C@H](C)NC(=O)[C@@H](NC(=O)[C@H](CO)NC(=O)[C@H](CC(C)C)NC(=O)[C@H](CCC(=O)O)NC(=O)[C@H](CO)NC(=O)[C@H](C)NC(=O)CC[C@H](NC(=O)CCCCCCCCCCCCCCCCCCC(=O)O)C(=O)O)[C@@H](C)O)C(=O)NCC(=O)N[C@@H](Cc1c[nH]cn1)C(=O)N[C@@H](CC(C)C)C(=O)N[C@@H](CO)C(=O)N[C@@H](C)C(=O)N[C@@H](CCC(=O)O)C(=O)N[C@@H](CC(C)C)C(=O)N[C@@H](Cc1c[nH]cn1)C(=O)N[C@@H](CCC(=O)O)C(=O)N[C@@H](CC(C)C)C(=O)N[C@@H](C)C(=O)N[C@H](C(=O)N[C@@H](CC(C)C)C(=O)N1CCC[C@H]1C(=O)N[C@@H](Cc1c[nH]cn1)C(=O)N[C@H](C(=O)N[C@@H](CCC(=O)O)C(=O)N[C@H](C(=O)NCC(=O)N[C@@H](CO)C(=O)NCC(=O)N[C@@H](CO)C(=O)N1CCC[C@H]1C(N)=O)[C@@H](C)O)[C@@H](C)O)[C@@H](C)O) [[N-terminal(C20 diacid-gGlu), des1, 12H, 25H, 30S, 31G]mimylin] | 123 | 440
9 | {C20 diacid-γGlu}-EAASELSTAALGRLSAELHELATYPRTETGSGSP-NH2 (SMILES CC(C)C[C@H](NC(=O)[C@H](C)NC(=O)[C@H](C)NC(=O)[C@@H](NC(=O)[C@H](CO)NC(=O)[C@H](CC(C)C)NC(=O)[C@H](CCC(=O)O)NC(=O)[C@H](CO)NC(=O)[C@H](C)NC(=O)[C@H](C)NC(=O)[C@H](CCC(=O)O)NC(=O)CC[C@H](NC(=O)CCCCCCCCCCCCCCCCCCC(=O)O)C(=O)O)[C@@H](C)O)C(=O)NCC(=O)N[C@@H](CCCNC(=N)N)C(=O)N[C@@H](CC(C)C)C(=O)N[C@@H](CO)C(=O)N[C@@H](C)C(=O)N[C@@H](CCC(=O)O)C(=O)N[C@@H](CC(C)C)C(=O)N[C@@H](Cc1c[nH]cn1)C(=O)N[C@@H](CCC(=O)O)C(=O)N[C@@H](CC(C)C)C(=O)N[C@@H](C)C(=O)N[C@H](C(=O)N[C@@H](Cc1ccc(O)cc1)C(=O)N1CCC[C@H]1C(=O)N[C@@H](CCCNC(=N)N)C(=O)N[C@H](C(=O)N[C@@H](CCC(=O)O)C(=O)N[C@H](C(=O)NCC(=O)N[C@@H](CO)C(=O)NCC(=O)N[C@@H](CO)C(=O)N1CCC[C@H]1C(N)=O)[C@@H](C)O)[C@@H](C)O)[C@@H](C)O) [[N-terminal(C20 diacid-gGlu), -1E, 1A, 23Y, 30S, 31G]mimylin] | 113 | 181
